# From the supplement of paper PMC5998384
# Columns and labels:
# HeLa Kyoto [1] = assay: melting temperature (median over replicates), in situ; higher = more thermally stable
# HeLa Kyoto [2] = assay: solubility change mitosis vs G1/S (difference of NP-40 vs SDS log2 ratios) (log2 ratio difference); higher = more soluble in mitosis
# HeLa Kyoto [3] = assay: solubility in G1/S (NP-40 vs SDS abundance) (log2 ratio); higher = more soluble; conditions: cell cycle stage: G1/S
# HeLa Kyoto [4] = assay: thermal stability score vs G1/S (z-score of summed log2 fold changes over temperatures); higher = more thermally stable than in G1/S
# [5] = cell cycle stage: early G1 (4.5 h after nocodazole release)
# 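Throughout, for melting temperature (median over replicates), in situ: HeLa Kyoto cells synchronized by double thymidine or nocodazole block, proteins quantified by TMT10plex mass spectrometry, three independent biological replicates.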
# 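Throughout, for solubility change mitosis vs G1/S (difference of NP-40 vs SDS log2 ratios): synchronized HeLa Kyoto cells (double thymidine block for G1/S, nocodazole release for mitosis), protein amounts in NP-40 versus SDS lysates quantified by mass spectrometry, three biological replicates.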
# 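Throughout, for solubility in G1/S (NP-40 vs SDS abundance): HeLa Kyoto cells arrested at G1/S by double thymidine block, proteins quantified by TMT10plex mass spectrometry in mild NP-40 versus SDS extracts, three biological replicates.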
# 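Throughout, for thermal stability score vs G1/S (z-score of summed log2 fold changes over temperatures): synchronized HeLa Kyoto cells, proteins quantified by TMT10plex mass spectrometry, three biological replicates, mitosis taken 0.5 h after nocodazole release, G1/S directly after double thymidine block.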
# Chain of SORCS2 (chain, as listed by the source): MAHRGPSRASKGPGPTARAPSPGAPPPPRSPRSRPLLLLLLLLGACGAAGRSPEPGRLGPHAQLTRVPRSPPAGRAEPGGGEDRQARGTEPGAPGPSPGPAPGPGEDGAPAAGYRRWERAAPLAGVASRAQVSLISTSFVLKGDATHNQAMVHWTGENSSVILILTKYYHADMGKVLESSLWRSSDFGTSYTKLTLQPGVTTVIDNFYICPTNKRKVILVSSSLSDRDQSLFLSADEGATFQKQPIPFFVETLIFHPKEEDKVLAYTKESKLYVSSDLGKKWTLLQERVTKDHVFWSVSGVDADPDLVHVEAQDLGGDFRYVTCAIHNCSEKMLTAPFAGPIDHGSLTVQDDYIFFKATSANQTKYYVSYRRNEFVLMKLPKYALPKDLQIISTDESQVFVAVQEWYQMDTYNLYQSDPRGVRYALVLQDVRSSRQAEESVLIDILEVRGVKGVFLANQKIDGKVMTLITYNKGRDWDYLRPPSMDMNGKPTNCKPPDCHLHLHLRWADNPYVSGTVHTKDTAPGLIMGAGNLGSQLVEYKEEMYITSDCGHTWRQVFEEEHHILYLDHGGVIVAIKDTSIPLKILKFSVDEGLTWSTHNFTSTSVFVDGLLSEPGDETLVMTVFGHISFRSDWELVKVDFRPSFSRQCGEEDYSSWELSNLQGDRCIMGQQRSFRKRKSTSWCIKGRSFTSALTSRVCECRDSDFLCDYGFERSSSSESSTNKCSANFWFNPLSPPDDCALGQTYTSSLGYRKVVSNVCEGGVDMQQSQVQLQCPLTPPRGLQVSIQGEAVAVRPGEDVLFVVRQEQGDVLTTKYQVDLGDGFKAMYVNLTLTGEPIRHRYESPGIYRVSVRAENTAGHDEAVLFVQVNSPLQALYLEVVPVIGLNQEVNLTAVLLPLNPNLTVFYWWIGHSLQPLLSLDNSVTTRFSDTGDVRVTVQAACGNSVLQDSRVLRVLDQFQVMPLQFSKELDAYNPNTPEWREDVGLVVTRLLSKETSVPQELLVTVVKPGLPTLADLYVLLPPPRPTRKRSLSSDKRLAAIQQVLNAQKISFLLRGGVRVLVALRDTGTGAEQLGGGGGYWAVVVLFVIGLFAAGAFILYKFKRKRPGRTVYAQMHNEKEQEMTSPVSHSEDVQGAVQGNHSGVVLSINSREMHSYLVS
Substance,melting temperature (HeLa Kyoto [1]; cell cycle stage: G1/S) [°C],melting temperature (HeLa Kyoto [1]; cell cycle stage: mitosis) [°C],solubility change mitosis (log2) (HeLa Kyoto [2]),solubility in G1/S (log2) (HeLa Kyoto [3]),thermal stability score (HeLa Kyoto [4]; [5]),thermal stability score (HeLa Kyoto [4]; cell cycle stage: mitosis)
ROBO1,55.3,54.4,-0.145,0.177,-4.69,-6.19
MLWPRLAAAEWAALAWELLGASVLLIAVRWLVRRLGPRPGGLGRSGTPVPPPSAAAAPASGEMTMDALLARLKLLNPDDLREEIVKAGLKCGPITSTTRFIFEKKLAQALLEQGGRLSSFYHHEAGVTALSQDPQRILKPAEGNPTDQAGFSEDRDFGYSVGLNPPEEEAVTSKTCSVPPSDTDTYRAGATASKEPPLYYGVCPVYEDVPARNERIYVYENKKEALQAVKMIKGSRFKAFSTREDAEKFARGICDYFPSPSKTSLPLSPVKTAPLFSNDRLKDGLCLSESETVNKERANSYKNPRTQDLTAKLRKAVEKGEEDTFSDLIWSNPRYLIGSGDNPTIVQEGCRYNVMHVAAKENQASICQLTLDVLENPDFMRLMYPDDDEAMLQKRIRYVVDLYLNTPDKMGYDTPLHFACKFGNADVVNVLSSHHLIVKNSRNKYDKTPEDVICERSKNKSVELKERIREYLKGHYYVPLLRAEETSSPVIGELWSPDQTAEASHVSRYGGSPRDPVLTLRAFAGPLSPAKAEDFRKLWKTPPREKAGFLHHVKKSDPERGFERVGRELAHELGYPWVEYWEFLGCFVDLSSQEGLQRLEEYLTQQEIGKKAQQETGEREASCRDKATTSGSNSISVRAFLDEDDMSLEEIKNRQNAARNNSPPTVGAFGHTRCSAFPLEQEADLIEAAEPGGPHSSRNGLCHPLNHSRTLAGKRPKAPRGEEAHLPPVSDLTVEFDKLNLQNIGRSVSKTPDESTKTKDQILTSRINAVERDLLEPSPADQLGNGHRRTESEMSARIAKMSLSPSSPRHEDQLEVTREPARRLFLFGEEPSKLDQDVLAALECADVDPHQFPAVHRWKSAVLCYSPSDRQSWPSPAVKGRFKSQLPDLSGPHSYSPGRNSVAGSNPAKPGLGSPGRYSPVHGSQLRRMARLAELAAL [ANKLE2],47.5,48.1,0.146,0.122,2.02,3.19
MFPFYSCWRTGLLLLLLAVAVRESWQTEEKTCDLVGEKGKESEKELALVKRLKPLFNKSFESTVGQGSDTYIYIFRVCREAGNHTSGAGLVQINKSNGKETVVGRLNETHIFNGSNWIMLIYKGGDEYDNHCGKEQRRAVVMISCNRHTLADNFNPVSEERGKVQDCFYLFEMDSSLACSPEISHLSVGSILLVTFASLVAVYVVGGFLYQRLVVGAKGMEQFPHLAFWQDLGNLVADGCDFVCRSKPRNVPAAYRGVGDDQLGEESEERDDHLLPM [M6PR],60.3,59.1,-0.128,0.0483,-1.67,-2.67
MAAHGGSAASSALKGLIQQFTTITGASESVGKHMLEACNNNLEMAVTMFLDGGGIAEEPSTSSASVSTVRPHTEEEVRAPIPQKQEILVEPEPLFGAPKRRRPARSIFDGFRDFQTETIRQEQELRNGGAIDKKLTTLADLFRPPIDLMHKGSFETAKECGQMQNKWLMINIQNVQDFACQCLNRDVWSNEAVKNIIREHFIFWQVYHDSEEGQRYIQFYKLGDFPYVSILDPRTGQKLVEWHQLDVSSFLDQVTGFLGEHGQLDGLSSSPPKKCARSESLIDASEDSQLEAAIRASLQETHFDSTQTKQDSRSDEESESELFSGSEEFISVCGSDEEEEVENLAKSRKSPHKDLGHRKEENRRPLTEPPVRTDPGTATNHQGLPAVDSEILEMPPEKADGVVEGIDVNGPKAQLMLRYPDGKREQITLPEQAKLLALVKHVQSKGYPNERFELLTNFPRRKLSHLDYDITLQEAGLCPQETVFVQERN [UBXN7],52.8,52.8,-0.138,0.148,-0.156,-0.248
MNAGSDPVVIVSAARTIIGSFNGALAAVPVQDLGSTVIKEVLKRATVAPEDVSEVIFGHVLAAGCGQNPVRQASVGAGIPYSVPAWSCQMICGSGLKAVCLAVQSIGIGDSSIVVAGGMENMSKAPHLAYLRTGVKIGEMPLTDSILCDGLTDAFHNCHMGITAENVAKKWQVSREDQDKVAVLSQNRTENAQKAGHFDKEIVPVLVSTRKGLIEVKTDEFPRHGSNIEAMSKLKPYFLTDGTGTVTPANASGINDGAAAVVLMKKSEADKRGLTPLARIVSWSQVGVEPSIMGIGPIPAIKQAVTKAGWSLEDVDIFEINEAFAAVSAAIVKELGLNPEKVNIEGGAIALGHPLGASGCRILVTLLHTLERMGRSRGVAALCIGGGMGIAMCVQRE [ACAT2],58.4,58.2,-0.0395,0.305,-0.261,-1.17
MAYPGHPGAGGGYYPGGYGGAPGGPAFPGQTQDPLYGYFAAVAGQDGQIDADELQRCLTQSGIAGGYKPFNLETCRLMVSMLDRDMSGTMGFNEFKELWAVLNGWRQHFISFDTDRSGTVDPQELQKALTTMGFRLSPQAVNSIAKRYSTNGKITFDDYIACCVKLRALTDSFRRRDTAQQGVVNFPYDDFIQCVMSV [SRI],52.8,52.2,0.318,0.028,-2.31,-2.35
PIK3C2B,50.1,49.7,-0.142,-0.164,-0.0552,-0.413
CPS1,53.1,53.2,-0.13,0.0669,-0.953,-3.38
MATCAEILRSEFPEIDGQVFDYVTGVLHSGSADFESVDDLVEAVGELLQEVSGDSKDDAGIRAVCQRMYNTLRLAEPQSQGNSQVLLDAPIQLSKITENYDCGTKLPGLLKREQSSTVNAKKLEKAEARLKAKQEKRSEKDTLKTSNPLVLEEASASQAGSRKESRLESSGKNKSYDVRIENFDVSFGDRVLLAGADVNLAWGRRYGLVGRNGLGKTTLLKMLATRSLRVPAHISLLHVEQEVAGDDTPALQSVLESDSVREDLLRRERELTAQIAAGRAEGSEAAELAEIYAKLEEIEADKAPARASVILAGLGFTPKMQQQPTREFSGGWRMRLALARALFARPDLLLLDEPTNMLDVRAILWLENYLQTWPSTILVVSHDRNFLNAIATDIIHLHSQRLDGYRGDFETFIKSKQERLLNQQREYEAQQQYRQHIQVFIDRFRYNANRASQVQSKLKMLEKLPELKPVDKESEVVMKFPDGFEKFSPPILQLDEVDFYYDPKHVIFSRLSVSADLESRICVVGENGAGKSTMLKLLLGDLAPVRGIRHAHRNLKIGYFSQHHVEQLDLNVSAVELLARKFPGRPEEEYRHQLGRYGISGELAMRPLASLSGGQKSRVAFAQMTMPCPNFYILDEPTNHLDMETIEALGRALNNFRGGVILVSHDERFIRLVCRELWVCEGGGVTRVEGGFDQYRALLQEQFRREGFL [ABCF3],47.9,47.9,-0.0928,0.0738,1.82,3.62
MAASVVCRAATAGAQVLLRARRSPALLRTPALRSTATFAQALQFVPETQVSLLDNGLRVASEQSSQPTCTVGVWIDVGSRFETEKNNGAGYFLEHLAFKGTKNRPGSALEKEVESMGAHLNAYSTREHTAYYIKALSKDLPKAVELLGDIVQNCSLEDSQIEKERDVILREMQENDASMRDVVFNYLHATAFQGTPLAQAVEGPSENVRKLSRADLTEYLSTHYKAPRMVLAAAGGVEHQQLLDLAQKHLGGIPWTYAEDAVPTLTPCRFTGSEIRHRDDALPFAHVAIAVEGPGWASPDNVALQVANAIIGHYDCTYGGGVHLSSPLASGAVANKLCQSFQTFSICYAETGLLGAHFVCDRMKIDDMMFVLQGQWMRLCTSATESEVARGKNILRNALVSHLDGTTPVCEDIGRSLLTYGRRIPLAEWESRIAEVDASVVREICSKYIYDQCPAVAGYGPIEQLPDYNRIRSGMFWLRF [UQCRC1],55.3,54.2,-0.0237,0.324,-0.504,-3.84
SORCS2,53.7,50.4,-0.162,0.0123,-2.23,-3.21
MPATLLRAVARSHHILSKAHQCRRIGHLMLKPLKEFENTTCSTLTIRQSLDLFLPDKTASGLNKSQILEMNQKKSDTSMLSPLNAARCQDEKAHLPTMKSFGTHRRVTHKPNLLGSKWFIKILKRHFSSVSTETFVPKQDFPQVKRPLKASRTRQPSRTNLPVLSVNEDLMHCTAFATADEYHLGNLSQDLASHGYVEVTSLPRDAANILVMGVENSAKEGDPGTIFFFREGAAVFWNVKDKTMKHVMKVLEKHEIQPYEIALVHWENEELNYIKIEGQSKLHRGEIKLNSELDLDDAILEKFAFSNALCLSVKLAIWEASLDKFIESIQSIPEALKAGKKVKLSHEEVMQKIGELFALRHRINLSSDFLITPDFYWDRENLEGLYDKTCQFLSIGRRVKVMNEKLQHCMELTDLMRNHLNEKRALRLEWMIVILITIEVMFELGRVFF [RMND1],52.1,51.2,-0.125,-0.145,-1,-0.87
MERKVLALQARKKRTKAKKDKAQRKSETQHRGSAPHSESDLPEQEEEILGSDDDEQEDPNDYCKGGYHLVKIGDLFNGRYHVIRKLGWGHFSTVWLSWDIQGKKFVAMKVVKSAEHYTETALDEIRLLKSVRNSDPNDPNREMVVQLLDDFKISGVNGTHICMVFEVLGHHLLKWIIKSNYQGLPLPCVKKIIQQVLQGLDYLHTKCRIIHTDIKPENILLSVNEQYIRRLAAEATEWQRSGAPPPSGSAVSTAPQPKPADKMSKNKKKKLKKKQKRQAELLEKRMQEIEEMEKESGPGQKRPNKQEESESPVERPLKENPPNKMTQEKLEESSTIGQDQTLMERDTEGGAAEINCNGVIEVINYTQNSNNETLRHKEDLHNANDCDVQNLNQESSFLSSQNGDSSTSQETDSCTPITSEVSDTMVCQSSSTVGQSFSEQHISQLQESIRAEIPCEDEQEQEHNGPLDNKGKSTAGNFLVNPLEPKNAEKLKVKIADLGNACWVHKHFTEDIQTRQYRSLEVLIGSGYNTPADIWSTACMAFELATGDYLFEPHSGEEYTRDEDHIALIIELLGKVPRKLIVAGKYSKEFFTKKGDLKHITKLKPWGLFEVLVEKYEWSQEEAAGFTDFLLPMLELIPEKRATAAECLRHPWLNS [SRPK1],51.7,51.3,0.114,-0.411,0.23,-0.71
MEPAPARSPRPQQDPARPQEPTMPPPETPSEGRQPSPSPSPTERAPASEEEFQFLRCQQCQAEAKCPKLLPCLHTLCSGCLEASGMQCPICQAPWPLGADTPALDNVFFESLQRRLSVYRQIVDAQAVCTRCKESADFWCFECEQLLCAKCFEAHQWFLKHEARPLAELRNQSVREFLDGTRKTNNIFCSNPNHRTPTLTSIYCRGCSKPLCCSCALLDSSHSELKCDISAEIQQRQEELDAMTQALQEQDSAFGAVHAQMHAAVGQLGRARAETEELIRERVRQVVAHVRAQERELLEAVDARYQRDYEEMASRLGRLDAVLQRIRTGSALVQRMKCYASDQEVLDMHGFLRQALCRLRQEEPQSLQAAVRTDGFDEFKVRLQDLSSCITQGKDAAVSKKASPEAASTPRDPIDVDLPEEAERVKAQVQALGLAEAQPMAVVQSVPGAHPVPVYAFSIKGPSYGEDVSNTTTAQKRKCSQTQCPRKVIKMESEEGKEARLARSSPEQPRPSTSKAVSPPHLDGPPSPRSPVIGSEVFLPNSNHVASGAGEAEERVVVISSSEDSDAENSSSRELDDSSSESSDLQLEGPSTLRVLDENLADPQAEDRPLVFFDLKIDNETQKISQLAAVNRESKFRVVIQPEAFFSIYSKAVSLEVGLQHFLSFLSSMRRPILACYKLWGPGLPNFFRALEDINRLWEFQEAISGFLAALPLIRERVPGASSFKLKNLAQTYLARNMSERSAMAAVLAMRDLCRLLEVSPGPQLAQHVYPFSSLQCFASLQPLVQAAVLPRAEARLLALHNVSFMELLSAHRRDRQGGLKKYSRYLSLQTTTLPPAQPAFNLQALGTYFEGLLEGPALARAEGVSTPLAGRGLAERASQQS [PML],50.3,50.5,0.33,-0.134,-0.223,2.23
